Measurements published in US20250289897A1, “LEPTIN RECEPTOR AGONISTIC ANTIBODY AS MONO OR COMBO THERAPIES TO TREAT OBESITY” (ELI LILLY AND COMPANY, priority 2024, published 2025).

Tests used:
mouse-LEPR = target: T1, mouse-LEPR (Mus musculus, UniProt P48356); assay: STAT3-luciferase reporter assay in HEK293-STAT3Luc-msLepR9 cells; type: cell-based
T1 construct: introducing DNA plasmids encoding full-length LEPR of different species and STAT3-luciferase reporter gene into HEK293 cells; expressed in transfected cells; host or cells: HEK293 (HEK293-STAT3Luc-msLepR9)
T1 sequence (P48356 22-1162): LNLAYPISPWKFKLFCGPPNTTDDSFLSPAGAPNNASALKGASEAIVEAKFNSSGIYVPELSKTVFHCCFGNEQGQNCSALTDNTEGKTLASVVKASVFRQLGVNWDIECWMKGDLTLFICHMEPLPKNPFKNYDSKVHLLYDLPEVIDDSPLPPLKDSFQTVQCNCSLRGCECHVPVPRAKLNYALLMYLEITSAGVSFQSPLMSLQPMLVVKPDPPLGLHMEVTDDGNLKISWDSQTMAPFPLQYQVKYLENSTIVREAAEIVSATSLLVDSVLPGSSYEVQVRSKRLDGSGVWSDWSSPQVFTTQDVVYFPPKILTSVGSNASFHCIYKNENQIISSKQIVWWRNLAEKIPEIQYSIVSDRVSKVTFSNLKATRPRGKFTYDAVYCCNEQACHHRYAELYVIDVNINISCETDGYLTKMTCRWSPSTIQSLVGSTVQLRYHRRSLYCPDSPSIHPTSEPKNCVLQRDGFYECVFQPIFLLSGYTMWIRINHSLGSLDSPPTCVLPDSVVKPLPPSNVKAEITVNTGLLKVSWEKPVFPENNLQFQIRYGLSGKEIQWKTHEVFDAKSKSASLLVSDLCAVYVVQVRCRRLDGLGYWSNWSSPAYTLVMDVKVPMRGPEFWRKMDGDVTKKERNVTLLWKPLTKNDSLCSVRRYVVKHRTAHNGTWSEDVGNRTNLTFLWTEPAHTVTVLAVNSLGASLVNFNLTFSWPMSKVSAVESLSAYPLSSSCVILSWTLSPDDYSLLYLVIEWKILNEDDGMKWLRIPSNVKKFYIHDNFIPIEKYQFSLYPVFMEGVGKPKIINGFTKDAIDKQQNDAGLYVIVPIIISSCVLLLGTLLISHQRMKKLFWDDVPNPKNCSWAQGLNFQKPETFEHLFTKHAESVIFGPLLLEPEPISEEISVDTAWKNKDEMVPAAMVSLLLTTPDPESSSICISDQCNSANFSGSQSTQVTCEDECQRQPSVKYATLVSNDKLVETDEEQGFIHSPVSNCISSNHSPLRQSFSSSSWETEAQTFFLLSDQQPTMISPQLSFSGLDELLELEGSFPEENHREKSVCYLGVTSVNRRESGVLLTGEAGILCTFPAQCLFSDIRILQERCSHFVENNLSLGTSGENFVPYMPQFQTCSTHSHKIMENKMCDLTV
Source text: (§1) LEPR is a cell surface single-pass transmembrane receptor. Activation of LEPR leads to phosphorylation of intracellular STAT3 (pSTAT3) and subsequent target gene transcription. To measure LEPR activation by anti-LEPR antibodies in the present disclosure, five independent STAT-luciferase reporter cell lines were established by introducing DNA plasmids encoding full-length LEPR of different species and STAT3-luciferase reporter gene into HEK293 cells (Table 4). […]
(§2) Before plating the cells for luciferase assays, the poly-D-Lysine coated 96-well plates (Corning Inc, #354651) were rinsed once with phosphate buffered solution (PBS). […] Cell lysing and One-Glo luciferase substrate solution (Promega, #E6120) were then added to each well, and relative luciferase units (RLUs) were measured on a ClarioStar plate reader. For each reporter cell line, positive control LEPR activation was calculated as the average RLUs stimulated by 20 nM recombinant human leptin protein (SEQ ID NO:27) minus the average RLUs of unstimulated cells and was set as maximum LEPR activation (100%). […]

canine-LEPR = assay: STAT3-luciferase reporter assay in HEK293-STAT3Luc-dLepR7 cells; type: cell-based, Canis lupus
Source text: as §1, §2

- EC50 (mouse-LEPR; antibodies at concentrations up to 90 nM, read-out: EC50 (nM) ± SEM): 0.0788 ± 0.017 nM
- Agonism (%) ± SEM (mouse-LEPR; vs 20 nM recombinant human leptin, antibodies up to 90 nM): 116.17%
- EC50 (canine-LEPR; STAT3-luciferase, 20 hours, read-out: EC50 (nM) ± SEM): 0.582 ± 0.172 nM
Substance: human leptin: recombinant human leptin protein (SEQ ID NO:27), positive control
- Agonism (%) ± SEM (canine-LEPR; top of fitted curve vs response to 20 nM recombinant human leptin): 107.5%
